Results from IntAct's records for PubMed 24685146.

B1: Vinculin (Gallus gallus (Chicken)), P12003-1 (parent)
chain: MPVFHTRTIESILEPVAQQISHLVIMHEEGEVDGKAIPDLTAPVSAVQAAVSNLVRVGKETVQTTEDQILKRDMPPAFIKVENACTKLVRAAQMLQADPYSVPARDYLIDGSRGILSGTSDLLLTFDEAEVRKIIRVCKGILEYLTVAEVVETMEDLVTYTKNLGPGMTKMAKMIDERQQELTHQEHRVMLVNSMNTVKELLPVLISAMKIFVTTKNTKSQGIEEALKNRNFTVEKMSAEINEIIRVLQLTSWDEDAWASKDTEAMKRALALIDSKMNQAKGWLRDPNAPPGDAGEQAIRQILDEAGKAGELCAGKERREILGTCKTLGQMTDQLADLRARGQGATPMAMQKAQQVSQGLDLLTAKVENAARKLEAMTNSKQAIAKKIDAAQNWLADPNGGSEGEEHIRGIMSEARKVAELCEEPKERDDILRSLGEISALTAKLSDLRRHGKGDSPEARALAKQIATSLQNLQSKTNRAVANTRPVKAAVHLEGKIEQAQRWIDNPTVDDRGVGQAAIRGLVAEGRRLANVMMGPYRQDLLAKCDRVDQLAAQLADLAARGEGESPQARAIAAQLQDSLKDLKARMQEAMTQEVSDVFSDTTTPIKLLAVAATAPSDTPNREEVFEERAANFENHAARLGATAEKAAAVGTANKTTVEGIQATVKSARELTPQVVSAARILLRNPGNQAAYEHFETMKNQWIDNVEKMTGLVDEAIDTKSLLDASEEAIKKDLDKCKVAMANMQPQMLVAGATSIARRANRILLVAKREVENSEDPKFREAVKAASDELSKTISPMVMDAKAVAGNISDPGLQKSFLDSGYRILGAVAKVREAFQPQEPDFPPPPPDLEHLHLTDELAPPKPPLPEGEVPPPRPPPPEEKDEEFPEQKAGEAINQPMMMAARQLHDEARKWSSKGNDIIAAAKRMALLMAEMSRLVRGGSGNKRALIQCAKDIAKASDEVTRLAKEVAKQCTDKRIRTNLLQVCERIPTISTQLKILSTVKATMLGRTNISDEESEQATEMLVHNAQNLMQSVKETVREAEAASIKIRTDAGFTLRWVRKTPWYQ

Variants of: B1
Conditions: with acts_rabit ACTA1, P68135

Row | effect of a mutation on the interaction | Variant
1 | decreasing interaction strength | I997A
2 | decreasing interaction strength | V1001A
